# B1: Poly [ADP-ribose] polymerase 1 (Mus musculus), P11103 (parent)
# chain: MAEASERLYRVQYAKSGRASCKKCSESIPKDSLRMAIMVQSPMFDGKVPHWYHFSCFWKVGQSIRHPDVEVDGFSELRWDDQQKVKKTAEAGGVAGKGQDGSGGKAEKTLGDFAAEYAKSNRSMCKGCLEKIEKGQMRLSKKMVDPEKPQLGMIDRWYHPTCFVKKRDELGFRPEYSASQLKGFSLLSAEDKEALKKQLPAIKNEGKRKGDEVDGTDEVAKKKSRKETDKYSKLEKALKAQNELIWNIKDELKKACSTNDLKELLIFNQQQVPSGESAILDRVADGMAFGALLPCKECSGQLVFKSDAYYCTGDVTAWTKCMVKTQNPSRKEWVTPKEFREISYLKKLKVKKQDRIFPPESSAPITVHWPLSVTSAPTAVNSSAPADKPLSNMKILTLGKLSQNKDEAKAVIEKLGGKLTGSANKASLCISIKKEVEKMNKKMEEVKEANIRVVSEDFLQDVSASTKSLQDLLSAHSLSPWGAEVKAEPGEVVAPRGKSAAPSKKSKGCFKEEGVNKSEKRMKLTLKGGAAVDPDSGLEHSAHVLEKGGKVFSATLGLVDIVKGTNSYYKLQLLEDDKESRYWIFRSWGRLGTVIGSNKLEQMPSKEEAVEQFMKLYEEKTGNAWHSKNFTKYPKKFYPLEIDYGQDEEAVKKLTVKPGTKSKLPKPVQELVGMIFDVDSMKKALVEYEIDLQKMPLGKLSRRQIQAAYSILSEVQQPVSQGSSESQILDLSNRFYTLIPHDFGMKKPPLLNNADSVQAKVEMLDNLLDIEVAYSLLRGGSDDSSKDPIDVNYEKLKTDIKVVDRDSEEAEVIRKYVKNTHATTHNAYDLEVIDIFKIEREGESQRYKPFRQLHNRRLLWHGSRTTNFAGILSQGLRIAPPEAPVTGYMFGKGIYFADMVSKSANYCHTSQGDPIGLIMLGEVALGNMYELKHASHISKLPKGKHSVKGLGKTTPDPSASITLEGVEVPLGTGIPSGVNDTALLYNEYIVYDIAQVNLKYLLKLKFNFKTSLW
# partner: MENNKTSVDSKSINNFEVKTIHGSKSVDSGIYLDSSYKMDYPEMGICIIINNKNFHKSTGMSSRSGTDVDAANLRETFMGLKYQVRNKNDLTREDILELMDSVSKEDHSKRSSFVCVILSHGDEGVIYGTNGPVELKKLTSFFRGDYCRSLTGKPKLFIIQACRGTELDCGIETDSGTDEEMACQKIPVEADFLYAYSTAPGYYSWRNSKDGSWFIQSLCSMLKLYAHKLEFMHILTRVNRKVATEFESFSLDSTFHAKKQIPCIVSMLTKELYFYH
# Variants of: B1
# Settings: with casp3_mouse Casp3, P70677
row,effect of a mutation on the interaction,Variant
1,decreasing interaction,G210K

# Reference: IntAct's records for PubMed 19759058
